Laboratory results from patent US10023629B2 (priority 2012, dated 2018).
Entries after “also recorded” stand apart in the source; their conditions may differ.

Columns and labels:
NIBRG-14ma virus = tested on: NIBRG-14ma virus; set-up: species or system BALB/c mice; details: mouse, in vivo
H5N1 NIBRG-23 = experiment: microbe, parasite or virus in culture; format: cell-based, H5N1 influenza virus in MDCK cells; details: Influenza A virus, H5N1, read-out: NIBRG-23, plaque size reduction
H5N1 NIBRG-14 = experiment: microbe, parasite or virus in culture; format: cell-based, H5N1 influenza virus in MDCK cells
[1] = molecular target: N1rec, tetrameric recombinant N1 Neuraminidase (Influenza A virus, UniProt Q30CC2); experiment: biochemical; set-up: species or system H5N1 A/crested eagle/Belgium/09/2004
N1rec = format: binding, H5N1 A/crested eagle/Belgium/09/2004
[2] = molecular target: N1rec, tetrameric recombinant N1 Neuraminidase (soluble recombinant H5N1 NA derived from A/crested e (influenza A virus A/crested eagle/Belgium/01/2004 (H5N1))); experiment: SPR (Biacore 3000), N1rec immobilized on CM5 chip, VHHm injected
[3] = molecular target: N1rec, tetrameric recombinant N1 Neuraminidase (soluble recombinant H5N1 NA derived from A/crested e (influenza A virus A/crested eagle/Belgium/01/2004 (H5N1))); experiment: cell-based or functional assay
[4] = molecular target: N1rec, tetrameric recombinant N1 Neuraminidase (soluble recombinant H5N1 NA derived from A/crested e (influenza A virus A/crested eagle/Belgium/01/2004 (H5N1))); experiment: SPR, immobilized N1rec

For `CCOC(=O)C1=C[C@@H](OC(CC)CC)[C@H](NC(C)=O)[C@@H](N)C1` [Oseltamivir], the “morbidity (body weight)” value (NIBRG-14ma virus) was “significant body weight loss”, the “protection against lethality” value (NIBRG-14ma virus) was “protected the mice against lethality; also recorded: full protection” and the “viral RNA in lung homogenates (RT-qPCR Ct)” value (NIBRG-14ma virus) was “only slightly different”. For the same molecule, the survival (NIBRG-14ma virus; po, 1 mg/kg/day) was 100%, the IC50 (H5N1 NIBRG-23) was 73000 nM and the IC50 (H5N1 NIBRG-14; Influenza A virus, H5N1, read-out: NIBRG-14, plaque size reduction) was 15000 nM. For the same molecule, the IC50 [1] was 586 nM.

B1: N1-7-VHHm: binding but non-inhibitory N1-VHHm control (protein)
VHH: QVQLQESGGGLVQPGGSLRLSCAASGSRFSRYDMGWYRQAPGKQRELVATITSGGITNYADSVKGRFTISRDNTKNTVYLQMNSLKPEDTAVYYCNAEDPLRAIQLGSLTYEYWGQGTQVTVSSHHHHHH
With B1 the “size and number of NIBRG-14 plaques” value (H5N1 NIBRG-14) was “did not affect the size or number”, the Koff (N1rec) was 2.8E^−3 s^−1 and the Kon (N1rec) was 4.4E^+4 M^−1 · s^−1. For the same molecule, the “binding to N1rec after prior binding of another N1-VHHm” value (N1rec) was “not affected”, the “fold lower affinity KD than N1-5-VHHm and N1-3-VHHm, respectively” value (N1rec) was 10- to 100 fold and the Kd (N1rec; read-out: KKD) was 63 nM.

B2: N1-5-VHHm (VHH)
VHH: QVQLQESGGGLVQPGGSLRLSCAASGSDISIYEMGWYRQAPGKQRELVAAITSGGTTNYADSVKGRFTISRDNAKNTVYLQMNSLKPEDTAVYYCNAADFDLWEYDYWGQGTQVTVSS
Molecule B2 has a Kd [2] of 4.7 nM, a koff [2] of 0.00058 s⁻¹ and a kon [2] of 120000 M⁻¹ s⁻¹. The IC50 of inhibition of the catalytic N1 NA activity (MUNANA, 160 ng N1rec) [3] was 375 nM.

B3: N1-3-VHHm (VHH)
VHH: QVQLQESGGGLVQPGGSLRLSCAASGSIFSIHDMGWYRRAPGKQRELVAAITSGGSTNYADSVKGRFTISRDNAKNTVSLQMNSLKPEDTAVYYCNAWGEDYGLGEYDSWGQGTQVTVSS
B3 was tested, and the Kd [2] was 0.37 nM, the koff [2] was 0.0013 s⁻¹ and the kon [2] was 3.6e+06 M⁻¹ s⁻¹. It also gave an IC50 of inhibition of the catalytic N1 NA activity (MUNANA, 160 ng N1rec) [3] of 425 nM.

B4: N1-7-VHHm (VHH)
VHH: QVQLQESGGGLVQPGGSLRLSCAASGSRFSRYDMGWYRQAPGKQRELVATITSGGITNYADSVKGRFTISRDNTKNTVYLQMNSLKPEDTAVYYCNAEDPLRAIQLGSLTYEYWGQGTQVTVSS
With B4 the fold lower affinity (KD) than N1-3-VHHm [4] was 100 fold, the fold lower affinity (KD) than N1-5-VHHm [4] was 10 fold and the Kd [2] was 63 nM. For the same molecule, the koff [2] was 0.0028 s⁻¹ and the kon [2] was 44000 M⁻¹ s⁻¹.
